The nanobody polyreactivity screen of Harvey et al. (2022)

Assay: yeast display, Sf9 membrane polyspecificity reagent, FACS + sequencing; frameworks hold sequencing errors
Outline: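 Galactose induction of a Saccharomyces cerevisiae BJ5465 synthetic nanobody display library ran 36–48 hours. The cells were then stained for 1 hour at 4 °C with 10% biotinylated, detergent-solubilized Sf9 membrane reagent, pulled down on streptavidin microbeads and FACS-sorted into low and high (top ~1%) gates on expression and reagent-binding fluorescence. Labels for polyreactivity follow the gate of origin.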

Sequence | polyreactivity (PSR sort gate)
QDQLVASGGGLVQAGGSSRLSCAASGRTFWSNAMGWYRQAPGKERELVAVITSSGGRTYYADSVKGRFTISRDNAKNTVYLQMNSLKPEDTAVYYCNVVCSPSLGVRTKYGYWGQGTHVTVSS | high polyreactivity
QVQLVESGGGLVQAGGSLRLSCAASGSTFWIYAMGWYRQAPGKERELFAAITLRSGSTYYADSVKGRFTISRDNSKNTVYLQMNSLKPEDTAVYYCATDSWGFDSPNYNYWGQCTQVTVSS | low polyreactivity
QVQLVESGGGLVQAGGSLRLSCAASGRTISVYGMGWYRQAPGKERELVASIPWRGGTTYYADSVKGRFTISRDNAKNTVYLQMNSLKPEDTAVYYCAIEPFRFRYYYWGQGTQVTVSS | high polyreactivity
QVQLVESGGGLVQAGGSLRLSCAASGSIFRIYAMGWYRQAPGKERELVAAISWTGGSTYYADSVKGRFTISRDNAKNTFFLQMNSLKPEDTAVYYCAARPRYKFSAYEYWGQGTQVTVSS | high polyreactivity
QVQLVESGGGLVQAGGSLRLSCAASGRIFGWYAMGWSRQAPGKERELGAAITTADSTYYADSVKGRFTISRDNAKNTVYLQMNSLKPEDTAVYYCAADAYWEYDYWGQGTQVTVSS | low polyreactivity
QVQLVESGGGLVQAGGSLRLSCAASGRTFGYNAMGWYRQAPGKERELVATITSSDSTYYADSVKGRFTISRDNAKNTVYLQMNSLKPEDTAVYYCAADDVGWGYYVYSYPYDYWGQGTQVTVSS | low polyreactivity
QDQLVESGGGLVQAGGSLRLSFAASGSTFANYAMVWYRQAPGKEREWVAAISFSTVSTYYADSVKGRFTISRDNAKNTVYIQMNSLKPEDTAVYYCNTYYYGSRPSEDYWGQGTQVTVSS | high polyreactivity
QVQIVESGGGLVQAGGSLRLSCAASGFTFYGYAMGLYRQAPGKERELVATISGRGGRTYYADSVKGLFTISRDNAKNTVYLQMNSLKPVDTAVYFCAAVSSYRYYGDYYWGQGTQVTVSS | high polyreactivity
QVQLVESGGGLVQAGGSLRLSCAASGFTFDFYAMGWYRQAPGKERELVADISSSDGSTYADSVKGRFTISRDNAKNTVYLQMNSLKPEDTAVYYCAADYDNQYDFSLDDEYWGQGTQVTVSS | low polyreactivity
QVQLVESGGGLVQAGGSLRLSCAASGRTFSNYAMGWYRQAPGKERELVAAIRSGVRTYYADSVKGRFTISRDNAKNTVYLQMNSLKPEDTAVYYCAVATGLLYKSHGYWGQGTQVTVSS | low polyreactivity
QVQLVESGGGLVQAGGSLRLSCAASGSTLVRYAMGWYRQAPGKEREFVAAISWTGGSTYYADSVKGRFTISRDYAKNTVYLQMNSLKPEDTAVYYCSAEYFRGPSYSYWGQGTQVTVSS | high polyreactivity
QVQLVESGGGLVQAGGSLRLSCAASGRTFQYNTMGWYRQAPGKERELVAAISRSGGTTYYADSVKGRFTISRDNAKNTVYLQMNSLKPEDTAVYYCAAANSYTFRYGSWGQGTEVTVSS | high polyreactivity
QVQLVESGGGLVQAGGSLRLSCAASGFIWSYVMGWYRQAPGKESQLVAAISRSCGRTYYADSVKGRFTISRDNAKNTVYLQMNSLKPEDTAVYYCAKDGGWSRLHYNYWGQGNQVTVSS | high polyreactivity
QVQLVESGGGLVQAGGSLRLSCAASGITFYPNDMGWYRQAPGKERELVAAITTNDGDTYYADSVKGRFTISRDKAKNTVYLQMNSLKPEDTAVYYCAAASGSTSEYEYWGQGTQVTVSS | low polyreactivity
QVQLVESGGGLVQAGGSLRLSCAASGSTFSWYAMGWYRQAPGKERELVAAISYSGGTYYADSVKGRFTISRDNAKNTVYLQMNSLKPEDTAVYYCAALRTRYGYDYWGQGTQVTVSS | high polyreactivity
QVQLVESGGGLVQAGGSLRLSCAASGSTFSENAMGWSRQAPGKERELVAAISWGGGSTYYADSVKGRFTISRDNAKNTVYLQMNSLKPEDTAVYYCNADVFDDYGYFESDYWGQGTQVTVSS | low polyreactivity
QVQLVESGGGLVQAGGSLRLSCAATGITFYTYAMGWYRQAPGKERELVAAITRSGGSTYYADSVKGRFTISRDNAKNTVYLQMNSLKPEDTAVYYCAADGGYIYWEHLYYSGSDYWGQGTQVTVSS | low polyreactivity
QVQLVESGGGLVQAGGSLRLSFAASGFTFRNYAMGWYRQAPGKERELVAAISTSGGRTYYADSVKGRFTISRDNAKNTVYLEMNSLKPEDTAVYYCNAGSGSYSYRYNYWGQGTQVTVSS | high polyreactivity
QVQLVESGGGLVQAGGSLRLSCAASGSTFPSYAMGWYRQAPGKERELVAAITRSGGRTYYADSVKGRFTISRDNAKNTVYLQMNSLKPEDTAVYYCAADLGRNYDYWGQGTQVTVLS | low polyreactivity
QVQLVESGGGLVQAGGSIRLSCAASGRIFKAYAMGWYRQAPGKERELVAAITRGGRTKYADSVKGRFTLSRDNAKNTVYLQMNSLKPEYTAVYYCNPPRGVLYDYWGHGTQVTVSS | high polyreactivity
QVQLVESGGALVQAGGSLRLSCAASGFTFRTYAMGWYRQAPRKERELVADISGSGGSTYYADSVKGRFTISRDNPKNTVYLQMNSLKPEDTAVSYCAADYASWSNWGYEYWGQGTQVTVSS | high polyreactivity
QVQLVESGGGLVQAGGSLRLSCAASGSARYAMGWYRQATGNERELVAAISRRGGSTYYADSVKGRFTISRDNATKTVYLHMNSLKPEDTAVYYCAADGRISYDYWGQGTQVTVSS | low polyreactivity

Sequence | polyreactivity (PSR sort gate)
QVQLVESGGGLVQAGGSLRLSCAASGITFDYNAMGWYRQAPGKERELVADISASGDSTYYADSVKGRFTISRDNAKNTVYLQMNSLKPEDTAVYYCNTAYWYSWGYDYWGQGTQVTVSS | low polyreactivity
QVQLVESGGGLVQAGGSLRLSCAASGITFNYYVKGWYRQAPGKERELVAAIRRGGSTNYADSVKGRFTISRDNAKNTVYLQMNSLKPEDTAVYYCASRTYRGLAYDYWGQGTQVTVSS | high polyreactivity
QVQLVESGGGLFQAGGSLRLSCAASGRTIQTYTMGRYRQAPGKERELYAVITTRGGRTYYADSVKGRFTISRDNAKNTFYLQINRLKPEDTGVYYCIKGIPTRSVRSYDYWGQGTQVTVSS | high polyreactivity
QLQLVESGGGLVQAGGSLRLSCAASGFISWCNAMGWYRQAPGKERELVAAISWRDARTYYADSVKGRFTLSRDNAKNTVYLQMNSLKPEDTAVYYCNAVTAYVSRYLRGYRWFDYWGQGTQVTVSS | low polyreactivity
QVQLVESGGGLVQAGGSLRLSCAASGSTFRRYPMGGYRQAPGTERELVAGISSGGTTYYADSVKGRFTISRDNAKNSVYLQMNSLKPEDTAVYYCAKVLYLRSAQAYYYWGQGTQVTVSS | high polyreactivity
QVQLVESGGGLVQAGGSLRLSCAPSGRTFRYYAMGWYRQAPGKERELVATISKSGGSTYYADSVKGRFTISRDNAKNTVYLQMNSLKPEDTAVYYCAAPIYNGYASWQVYYWGQGTQVTVSS | high polyreactivity
QVQLVESGGGLVQAGGSLRLSCAASGGTFSKYAMGWYRQAPGKEREFVAAITVSGGGTYYADSVKGRFTISRDNAKNTVYLQMNSLKPEDTAVYYCAADLAWTASDYWGQGTQVTVSS | low polyreactivity
QVQLVESGGGLVQAGGSLRLSCAASGFIFRQNAMGWYRQAPGKEWELVARITWNGGRTYYADSVKGRFTISRDNAKNTVYLQMHSLKPEDTAVYYCNAVYWGYGKYDYWGQGTQVTVSS | high polyreactivity
QEQLEESGGGVVQAGGSLRLSCAAYGSIFYAYSMGWYRQAPGKEREFVAASSKRGGSTYYSDSVKGRFTISRDNEKNTVYLQMNSLKPEDTAVYYCYVGYGYWRGVKQSYDRFDYWGQGTQVTVSS | high polyreactivity
QVQLVESGGGLVQAGGILRLSCADSGSTFIGYAMGWYRQAPRKERELFAAISKSGGSTYYADSVKGRFTISRDNAKNTVYLQMNSLKPEDTAVYYCIVDTSRYVSWNDYWGQGTQVTVSS | high polyreactivity
QVQLVESGGGLVQAGGSLRLSCAASGSTFTYYAMGWYRQAPGKERELVASITTSGGDTNYADSVKGRFTISRDNAKNTVYLQMNSLKPEDTAVYYCAADLYDPYHVYGYNYWGQGTQVTVSS | low polyreactivity
QVQLVESVGGLVQAGGSLRLTCAASGFTFDKYAMGWYRQAPGKERELVAAISNSGGRTYYADSVKGRFTISRDNAKNTVYLQMNSLKPEDTAVYYCAAVALTRRYDYWGQGTQVTVSS | high polyreactivity
QVQLVESGGGLVQAGGSLRLSCAASGSIFRYYAMGWYRQAPGKEREFVAAISRSGGSTYYADSVKGRFTISRDNAKNTVYLQMNSLKPEDTAVYYCAASYYRYFVSLGYDYWGQGTQVTVSS | high polyreactivity
QVQLVESAGGLVQAGGSLRLSCAASGIIFPAYAMGWYRQAPGKERELVAGISGRGGSTYYADSVKGRFTISRDNAKNTVYLQMNSLKPEDTAVYYCAAYAGGPYKFDYWGQGTQVTVSS | high polyreactivity
QVQLVESGGGLVQAGGSLRLSCAASGSIFHINAMGWYRQAPGKERELVAAISSADRTYYADSVKGRFTISRDNAMNTVYLQMNSLKPEDTAVYYCAAVYYRYPYEYWGQGTQVTVSS | high polyreactivity
QVQLVESGGGLVQAGGSLRISCAASGRILYRYAMGRYRQAPGKERELVAAITWRGGTTYYADSVKGRFTISRDNAKNTVYLQMNSLKPEDTAVYYCNADWWRTLESDYWGQGTQVTVSS | low polyreactivity
PVQLVESGGGLVQAGGSLSLTCAASGIIFPVYAMGWYIQAPGKERELVAAITYSGDRTYYADSVKGRFTISRDNAKYTVYLQMNSLKPEDTAVDYFNARFGVWPYFYNEDDYLGQGTQVTVSS | low polyreactivity
QVQLVASGGGLVQAGGSLRLRCAASGFIFRYNTMGWYRQAPGKEREMVAVINRGGSTYYADSVKGRFTISRDNAKNTVYLQLNSLKAEDTGVYDCNVAKFGRYYYWGQGTQVTVSS | high polyreactivity
QVQLVESGGGLVQSGGSLRLSCAASGRTFFENAMGWYRPAPGKEREFVAAISYNGGSTYYADSVKGRFTISRDNAKNTVYLQMNSLKPEDTAVYYCAADPNYGYDYWGQGTQVTVSS | low polyreactivity
QVQLVESGGGLVQAGGSLRLSCAASGFTFPYYAMGWYRQAPGKERELVAAISSGGNTNYADSVKGRFTISRDNAKNTVYLQMNSLKPEDTAVYYCAAVFLRYLNWSVKYDYWGQGTQVTVSS | low polyreactivity
QVQLVESGGGLVQAGGSLRLSCAASGSTLDYNAMGWYRQAPGKEREFVADITWSGGSTHYADSVKGRFTISRDNSKNTVYLQMNSLKPEDTAVYYCATAYYYHGGYYYPYDDYWGQGTQVTVSS | low polyreactivity
